# Numbering of substitutions follows the chain as printed.
# B1: YW107.4.58 (antibody, V domains shown)
# VH: EVQLVESGGGLVQPGGSLRLSCAASGFTFSSYAMSWVRQAPGKGLEWVSQISPAGGYTNYADSVKGRFTISADTSKNTAYLQMNSLRAEDTAVYYCARELPYYRMSKVMDVWGQGTLVTVSS
# VL: DIQMTQSPSSLSASVGDRVTITCRASQYISSYLAWYQQKPGKAPKLLIYGASSRASGVPSRFSGSGSGTDFTLTISSLQPEDFATYYCQQYKSSPRTFGQGTKVEIKR
# B2: YW107.4.42 (antibody, V domains shown)
# VH: B1 VH
# VL: B1 VL with Y28W, S30H, R54S, K92Y, R96L
# B3: YW107.4.17 (antibody, V domains shown)
# VH: B1 VH
# VL: B1 VL with I29T, S30H, K92Y, R96V
# B4: YW107.4.59 (antibody, V domains shown)
# VH: B1 VH
# VL: B1 VL with Y28R, S30H, K92Y, S93I, R96L
# B5: YW107.4.76a (antibody, V domains shown)
# VH: B1 VH
# VL: B1 VL with S53R, K92L, S93R, R96H
# B6: YW107.4.85 (antibody, V domains shown)
# VH: B1 VH
# VL: B1 VL with R54G, A55E, K92I, S93I, R96I
# B7: YW107.4.66 (antibody, V domains shown)
# VH: B1 VH
# VL: B1 VL with K92I, S93V, R96L
# B8: YW107.4.55 (antibody, V domains shown)
# VH: B1 VH
# VL: B1 VL with Y28L, I29T, S30H, K92Y, R96L
# B9: YW107.4.63 (antibody, V domains shown)
# VH: B1 VH
# VL: B1 VL with I29L, R54S, A55E, K92I, S94V, R96L
# B10: YW107.4.41 (antibody, V domains shown)
# VH: B1 VH
# VL: B1 VL with Y28W, I29T, S30H, S53R, R54L, A55E, K92F, S93I, R96H
# B11: YW107.4.12 (antibody, V domains shown)
# VH: B1 VH
# VL: B1 VL with I29T, S30H, K92Y, R96I
# B12: YW107.4.33a (antibody, V domains shown)
# VH: B1 VH
# VL: B1 VL with S53R, K92I, S93G, R96I
# B13: YW107.4.78 (antibody, V domains shown)
# VH: B1 VH
# VL: B1 VL with A55E, K92L, R96I
# B14: YW107.4.38 (antibody, V domains shown)
# VH: B1 VH
# VL: B1 VL with I29L, K92L, S93R, R96I
# B15: YW107.4.76b (antibody, V domains shown)
# VH: B1 VH
# VL: B1 VL with Y28W, I29V, S30H, K92Y, S93G, S94T, R96I
# B16: YW107.4.33b (antibody, V domains shown)
# VH: B1 VH
# VL: B1 VL with S30H, S53R, K92Y, S93G, S94T, R96H
# B17: YW107.4.20 (antibody, V domains shown)
# VH: B1 VH
# VL: B1 VL with Y28R, I29T, S30H, K92Y, S93G, R96H
# B18: YW107.4.53 (antibody, V domains shown)
# VH: B1 VH
# VL: B1 VL with S53R, A55E, K92L, S93N, R96L
# B19: YW107.4.54 (antibody, V domains shown)
# VH: B1 VH
# VL: B1 VL with Y28P, I29L, S30H, K92Y, S93R, R96L
# B20: YW107.4.52 (antibody, V domains shown)
# VH: B1 VH
# VL: B1 VL with I29F, S53T, R54L, K92I, S93R, R96L
# B21: YW107.4.51 (antibody, V domains shown)
# VH: B1 VH
# VL: B1 VL with Y28R, S53R, A55E, S93L, R96L
# B22: YW107.4.18 (antibody, V domains shown)
# VH: B1 VH
# VL: B1 VL with I29F, S53T, R54H, A55E, K92I, S93R, R96L
# Target: T1, human NRP1 (human, UniProt O14786)
# Assay: competition phage ELISA
row,Binder,IC50 [nM]
1,B1,0.73
2,B2,0.81
3,B3,0.24
4,B4,1.8
5,B5,0.23
6,B6,0.44
7,B7,0.45
8,B8,0.93
9,B9,0.15
10,B10,0.43
11,B11,0.1
12,B12,0.31
13,B13,0.3
14,B14,0.28
15,B15,0.34
16,B16,0.58
17,B17,0.45
18,B18,0.3
19,B19,0.84
20,B20,0.22
21,B21,2

# Target: T1, human NRP1
# Assay: SPR 25C
row,Binder,Kd [nM]
1,B5,1.4
2,B9,0.8
3,B22,1
4,B14,1.8
5,B20,0.9

# Target: T2, murine NRP1 (mouse, UniProt P97333)
# T2 chain: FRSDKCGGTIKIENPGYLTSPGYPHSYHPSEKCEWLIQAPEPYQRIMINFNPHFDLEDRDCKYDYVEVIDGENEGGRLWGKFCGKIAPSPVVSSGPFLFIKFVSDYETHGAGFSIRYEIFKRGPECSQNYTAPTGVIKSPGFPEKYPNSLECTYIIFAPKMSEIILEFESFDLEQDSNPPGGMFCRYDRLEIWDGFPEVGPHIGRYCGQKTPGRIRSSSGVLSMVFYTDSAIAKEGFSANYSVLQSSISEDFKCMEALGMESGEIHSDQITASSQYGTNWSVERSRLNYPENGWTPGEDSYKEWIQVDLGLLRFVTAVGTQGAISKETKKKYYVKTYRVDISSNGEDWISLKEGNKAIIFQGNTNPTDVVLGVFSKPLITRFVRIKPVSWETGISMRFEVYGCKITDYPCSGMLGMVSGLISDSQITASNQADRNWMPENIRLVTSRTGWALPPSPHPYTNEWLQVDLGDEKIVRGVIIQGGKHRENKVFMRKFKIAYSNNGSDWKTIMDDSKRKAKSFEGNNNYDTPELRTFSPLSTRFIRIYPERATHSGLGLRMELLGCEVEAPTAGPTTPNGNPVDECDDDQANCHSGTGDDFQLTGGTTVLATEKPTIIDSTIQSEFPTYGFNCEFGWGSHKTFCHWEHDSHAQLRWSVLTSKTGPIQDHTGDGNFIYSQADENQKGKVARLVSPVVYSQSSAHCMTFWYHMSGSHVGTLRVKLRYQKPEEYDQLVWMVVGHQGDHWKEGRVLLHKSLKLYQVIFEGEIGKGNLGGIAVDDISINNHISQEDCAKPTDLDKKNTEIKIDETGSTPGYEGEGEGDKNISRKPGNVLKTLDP
# Assay: competition phage ELISA
row,Binder,IC50 [nM]
1,B1,3.5
2,B2,1.2
3,B3,6
4,B4,26
5,B5,0.8
6,B6,4
7,B7,2.6
8,B8,2
9,B9,0.8
10,B10,5.5
11,B11,3.4
12,B22,1.1
13,B13,1.7
14,B14,1.4
15,B15,3.9
16,B16,7.8
17,B17,33
18,B18,1.7
19,B19,2.7
20,B20,1.1
21,B21,12

# Target: T2, murine NRP1
# Assay: SPR 25C
row,Binder,Kd [nM]
1,B5,31
2,B9,0.8
3,B22,2.1
4,B14,3.2
5,B20,1.2

# Reference: patent US8211429 (dated 2012)
